Source: patent US20120171210A1, “METHODS AND COMPOSITIONS FOR INHIBITING C-MET DIMERIZATION AND ACTIVATION” (Genentech, Inc., priority 2003, published 2012)

How the values were obtained:
[1] = biological target: T1, Met extracellular domain deletion mutants (EC-WT, ΔS, ΔP, ΔIPT3, TM) (Homo sapiens, UniProt P08581); assay: Co-immunoprecipitation of HGF / scHGF with V5/His-tagged Met deletion mutants; format: binding; conditions: lysates of transfected 293 cells incubated with 5 μg HGF or scHGF, HGF α chain immunoblot
T1 construct: Sub-domain deletions of the Met extracellular domain were made from the N-terminus and tagged after the TM region with V5/His; expressed in transfected cells; host or cells: 293 cells (lysates)
T1 sequence (P08581 308-959 limits assumed, stated change not applied, one chain of several): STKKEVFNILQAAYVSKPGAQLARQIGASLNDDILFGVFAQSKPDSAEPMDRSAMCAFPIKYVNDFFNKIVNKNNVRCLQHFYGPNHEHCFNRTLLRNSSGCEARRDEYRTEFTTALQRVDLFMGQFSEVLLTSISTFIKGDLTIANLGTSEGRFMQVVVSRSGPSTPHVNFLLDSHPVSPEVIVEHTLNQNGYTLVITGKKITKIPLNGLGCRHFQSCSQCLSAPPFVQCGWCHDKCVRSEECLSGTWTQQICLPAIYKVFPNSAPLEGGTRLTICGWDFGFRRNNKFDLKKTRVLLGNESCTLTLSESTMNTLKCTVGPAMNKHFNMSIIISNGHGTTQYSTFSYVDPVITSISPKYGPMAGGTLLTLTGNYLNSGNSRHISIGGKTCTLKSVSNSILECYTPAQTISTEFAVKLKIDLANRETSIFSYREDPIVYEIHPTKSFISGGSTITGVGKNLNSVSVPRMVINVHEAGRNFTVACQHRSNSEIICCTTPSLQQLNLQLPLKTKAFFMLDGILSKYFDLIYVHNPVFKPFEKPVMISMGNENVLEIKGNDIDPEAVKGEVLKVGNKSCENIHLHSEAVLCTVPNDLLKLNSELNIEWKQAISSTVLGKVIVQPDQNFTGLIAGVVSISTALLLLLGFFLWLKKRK
Text: Extracellular sub-domain deletions of c-Met were constructed using conventional PCR methods. N-terminal primers containing the start of Sema, PSI, first IPT, or fourth IPT domains flanked by a KpnI site were paired with a C-terminal primer up to Met residue 959 flanked by a StuI site. c-Met was used as template and the PCR fragments for each clone were inserted into pCR-Blunt II-TOPO vector using the Zero Blunt TOPO PCR cloning kit (Invitrogen) according to manufacturer's instructions. The clones were confirmed by DNA sequencing. The constructs were then subcloned into pcDNA3.1 V5/His vector (Invitrogen) via KpnI and EcoRV to add a tag at the C-terminus. The signal peptide of Met was added via the HindIII and KpnI sites at the N-terminus of each clone. Each clone was digested with HindIII and EcoRV and subcloned into pRK5TKneo vector via HindIII and PmeI. For EC-WT Flag and EC-WT V5/His clones, an N-terminal primer containing a HindIII site was paired with a C-terminal primer up to Met residue 595 flanked by a StuI site. EC-WT V5/His was subcloned via HindIII/StuI into the HindIII/EcoRV sites of pcDNA3.1 V5/His, and then subcloned into pRK5TKneo as described above. For EC-WT Flag, the PCR fragment was ligated to pCR-Blunt II-TOPO vector. […]
Cell lines were obtained from American Type Culture Collection (ATCC). […] Proteins were detected by enhanced chemiluminescence (ECL-Plus, Amersham). […]

[2] = tested on: H441 cells; assay: Scrape assay (Met mediated cell motility); format: cell-based, Human; conditions: H441, 100 ng/ml HGF, serum-free
Experimental: H441 cells were seeded at a density of 4.5×10^4 cells/well in a 96-well plate with 10% FBS in 50:50 DMEM/F12. The next day, a single scrape was made in the confluent monolayer in each well as described previously (Lorenzato et al., 2002). The cells were then incubated with media containing 0.5% BSA and treated with mock, 10 μg/ml 5D5, 10 μg/ml Sema, or 100 ng/ml HGF. The scrape was monitored and photographed daily. Representative results are shown for Day 2.
H441 cells were used in a scrape assay as a measure of Met mediated cell motility (Lorenzato et al., 2002). H441 cells grown to high density were scraped in each well on day 0 and maintained in serum-free media containing 0.5% BSA for the duration of the experiment (FIG. 6). Cells were either treated with 10 μg/ml rSema or 5D5 or 100 ng/ml HGF as a positive control or mock treated. […] These observations were consistent in four separate experiments.
To examine the effect of rSema on cell motility in the presence of ligand, cells were treated with 0, 0.1, 0.5, or 5 μg/ml rSema plus 20 ng/ml HGF. Cells treated with HGF alone closed the gap completely by Day 1.

[3] = tested on: recombinant EC-Met and Sema domain proteins; assay: Coimmunoprecipitation with recombinant EC-Met and Sema domain proteins; format: binding; conditions: data not shown
[4] = biological target: T2, Met (Homo sapiens, UniProt P08581); conditions: Lokker et al., 1992; cited from earlier work
Target sequence in this assay (P08581 25-1390): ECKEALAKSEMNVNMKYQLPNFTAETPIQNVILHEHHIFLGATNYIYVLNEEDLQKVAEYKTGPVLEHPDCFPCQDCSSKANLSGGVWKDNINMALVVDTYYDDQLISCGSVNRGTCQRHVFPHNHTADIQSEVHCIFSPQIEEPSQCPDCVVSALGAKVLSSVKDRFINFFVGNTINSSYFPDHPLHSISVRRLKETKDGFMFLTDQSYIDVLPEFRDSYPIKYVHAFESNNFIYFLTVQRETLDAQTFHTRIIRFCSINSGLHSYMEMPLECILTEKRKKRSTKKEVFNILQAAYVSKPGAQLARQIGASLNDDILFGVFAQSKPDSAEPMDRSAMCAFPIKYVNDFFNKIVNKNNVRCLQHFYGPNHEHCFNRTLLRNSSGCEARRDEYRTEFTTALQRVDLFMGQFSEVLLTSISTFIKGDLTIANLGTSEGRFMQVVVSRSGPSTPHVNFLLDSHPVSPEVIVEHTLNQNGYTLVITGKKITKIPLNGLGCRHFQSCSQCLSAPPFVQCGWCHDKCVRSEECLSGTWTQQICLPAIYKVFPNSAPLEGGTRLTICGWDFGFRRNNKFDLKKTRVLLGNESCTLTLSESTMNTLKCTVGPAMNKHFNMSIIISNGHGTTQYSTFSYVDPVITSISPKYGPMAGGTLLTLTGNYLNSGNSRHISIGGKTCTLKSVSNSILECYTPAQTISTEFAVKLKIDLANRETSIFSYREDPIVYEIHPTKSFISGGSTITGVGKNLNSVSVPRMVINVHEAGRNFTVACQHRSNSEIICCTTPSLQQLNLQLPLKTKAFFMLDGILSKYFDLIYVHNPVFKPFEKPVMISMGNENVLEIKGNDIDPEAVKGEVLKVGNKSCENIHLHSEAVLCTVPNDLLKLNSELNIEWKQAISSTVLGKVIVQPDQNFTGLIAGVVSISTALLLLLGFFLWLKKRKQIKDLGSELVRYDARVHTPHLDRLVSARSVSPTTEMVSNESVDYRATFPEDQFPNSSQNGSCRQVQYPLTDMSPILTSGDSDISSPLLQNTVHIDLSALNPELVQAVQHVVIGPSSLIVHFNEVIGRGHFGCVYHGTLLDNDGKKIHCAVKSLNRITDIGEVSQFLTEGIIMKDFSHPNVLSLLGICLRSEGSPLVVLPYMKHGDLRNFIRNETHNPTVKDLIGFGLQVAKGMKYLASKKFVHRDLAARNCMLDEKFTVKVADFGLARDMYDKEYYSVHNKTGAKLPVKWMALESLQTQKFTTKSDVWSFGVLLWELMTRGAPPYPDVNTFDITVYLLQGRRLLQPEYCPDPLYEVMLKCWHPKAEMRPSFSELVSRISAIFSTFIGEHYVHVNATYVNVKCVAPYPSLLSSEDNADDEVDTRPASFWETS

[5] = biological target: T2, Met; assay: Met tyrosine phosphorylation in A549 cells (immunoprecipitation / phosphotyrosine immunoblot); format: cell-based; parameters: endogenous in cells; host or cells: A549 (lung carcinoma); conditions: A549 cells transfected with Met deletion mutants, vs mock
Experimental: (§1) Cell lines were obtained from American Type Culture Collection (ATCC). 293 cells were maintained in DMEM supplemented with 10% FBS (Sigma), penicillin/streptomycin (GIBCO), and glutamine A549, H441, and MDA-MB-435 cells were maintained in 50:50 DMEM/F12 (Cellgro) supplemented with 10% FBS, penicillin/streptomycin, and glutamine Cells were transfected with 1-12 μg of the indicated constructs using Lipofectamine 2000 (Invitrogen) according to manufacturer's instructions. Twenty-four hrs later cells were harvested with 1% NP40 lysis buffer containing Complete protease inhibitor cocktail tablet and phosphatase inhibitor cocktail 2 (Roche and Sigma, respectively). For Met tyrosine phosphorylation and MAPK phosphorylation studies, cells were serum-starved for 2 hr with 0.5% BSA. Cells treated with 10 μg/ml anti-Met 5D5-Fab or rSema were incubated for an additional 1 hr prior to lysis. Cell debris was centrifuged and the supernatant was precleared with Protein A Sepharose (Sigma) or Protein G-Plus agarose beads (Santa Cruz) for 1 hr. 500 μg of lysates was then immunoprecipitated with 10 μg 5D5 antibody (Genentech) or 35 ul of Met (C-28) agarose conjugate (Santa Cruz) overnight at 4° C. with rotation. For HGF binding studies, 500 μg of lysates were incubated with 5 μg scHGF or HGF followed by immunoprecipitation with 1 μg of V5 antibody. Protein A or G beads were added for an additional 2 hrs before immunoprecipitates were washed 3 times with 1% NP40 lysis buffer. After addition of 2× sample buffer with 10 mM DTT, the samples were run on 4-12% Tris-glycine gels (Invitrogen). […] Proteins were detected by enhanced chemiluminescence (ECL-Plus, Amersham).
(§2) Human tumor cells were treated with increasing concentrations of rSema and analyzed for Met tyrosine phosphorylation and downstream activation of mitogen activated protein kinase (MAPK) upon HGF stimulation. […]
Target sequence in this assay (P08581 308-1390, one chain of several): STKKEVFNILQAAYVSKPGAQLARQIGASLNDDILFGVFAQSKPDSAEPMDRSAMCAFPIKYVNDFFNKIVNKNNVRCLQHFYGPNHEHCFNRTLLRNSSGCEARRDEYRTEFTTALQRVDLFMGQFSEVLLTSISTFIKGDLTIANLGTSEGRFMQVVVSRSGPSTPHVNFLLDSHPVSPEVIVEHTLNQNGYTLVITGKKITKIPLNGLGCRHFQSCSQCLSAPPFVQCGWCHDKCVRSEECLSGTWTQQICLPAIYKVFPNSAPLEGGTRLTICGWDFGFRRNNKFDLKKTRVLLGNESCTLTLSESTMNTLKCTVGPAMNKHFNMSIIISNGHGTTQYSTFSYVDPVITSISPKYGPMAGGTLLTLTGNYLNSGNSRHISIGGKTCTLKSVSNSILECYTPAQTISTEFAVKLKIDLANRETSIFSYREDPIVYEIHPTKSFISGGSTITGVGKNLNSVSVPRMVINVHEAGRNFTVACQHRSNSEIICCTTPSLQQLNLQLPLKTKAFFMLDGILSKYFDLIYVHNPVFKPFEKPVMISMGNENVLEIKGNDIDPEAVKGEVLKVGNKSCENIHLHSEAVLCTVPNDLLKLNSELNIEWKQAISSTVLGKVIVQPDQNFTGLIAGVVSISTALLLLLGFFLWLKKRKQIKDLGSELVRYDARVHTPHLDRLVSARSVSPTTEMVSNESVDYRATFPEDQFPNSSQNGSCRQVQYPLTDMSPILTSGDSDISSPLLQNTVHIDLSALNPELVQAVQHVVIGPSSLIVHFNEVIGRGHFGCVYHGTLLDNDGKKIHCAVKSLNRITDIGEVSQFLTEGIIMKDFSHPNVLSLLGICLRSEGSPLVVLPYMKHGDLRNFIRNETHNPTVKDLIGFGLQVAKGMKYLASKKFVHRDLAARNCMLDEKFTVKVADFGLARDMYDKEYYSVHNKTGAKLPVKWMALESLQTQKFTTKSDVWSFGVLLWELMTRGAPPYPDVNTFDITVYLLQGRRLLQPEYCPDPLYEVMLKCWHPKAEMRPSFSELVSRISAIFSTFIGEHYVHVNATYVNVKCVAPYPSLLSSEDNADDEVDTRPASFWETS

[6] = tested on: MAPK; assay: MAPK phosphorylation in A549 cells (immunoblot); format: cell-based, Human; conditions: A549 cells transfected with Met deletion mutants, vs mock
Experimental: as §1, §2

HGF: Recombinant HGF, cognate ligand of the Met receptor; positive control
binding to Met deletion mutants [1]: bound EC-WT alone | gap closure in scrape assay (positive control) [2]: closed the gap by Day 1 | binding to recombinant EC-Met and Sema domain proteins [3]: bound to recombinant EC-Met and Sema domain proteins

scHGF (R494E): Single-chain HGF containing an R494E mutation [reference compound]
binding to Met deletion mutants [1]: only binds EC-WT and not the Sema deleted mutants | binding and activation of the Met receptor [4]: binds and inhibits activation of the Met receptor | binding to recombinant EC-Met and Sema domain proteins [3]: bound to recombinant EC-Met and Sema domain proteins

B1: EC-WT: membrane-bound extracellular Met construct containing the Sema domain, V5/His tagged, expressed by transfection (protein, UniProt P08581 25-932, looked up)
extracellular domain: ECKEALAKSEMNVNMKYQLPNFTAETPIQNVILHEHHIFLGATNYIYVLNEEDLQKVAEYKTGPVLEHPDCFPCQDCSSKANLSGGVWKDNINMALVVDTYYDDQLISCGSVNRGTCQRHVFPHNHTADIQSEVHCIFSPQIEEPSQCPDCVVSALGAKVLSSVKDRFINFFVGNTINSSYFPDHPLHSISVRRLKETKDGFMFLTDQSYIDVLPEFRDSYPIKYVHAFESNNFIYFLTVQRETLDAQTFHTRIIRFCSINSGLHSYMEMPLECILTEKRKKRSTKKEVFNILQAAYVSKPGAQLARQIGASLNDDILFGVFAQSKPDSAEPMDRSAMCAFPIKYVNDFFNKIVNKNNVRCLQHFYGPNHEHCFNRTLLRNSSGCEARRDEYRTEFTTALQRVDLFMGQFSEVLLTSISTFIKGDLTIANLGTSEGRFMQVVVSRSGPSTPHVNFLLDSHPVSPEVIVEHTLNQNGYTLVITGKKITKIPLNGLGCRHFQSCSQCLSAPPFVQCGWCHDKCVRSEECLSGTWTQQICLPAIYKVFPNSAPLEGGTRLTICGWDFGFRRNNKFDLKKTRVLLGNESCTLTLSESTMNTLKCTVGPAMNKHFNMSIIISNGHGTTQYSTFSYVDPVITSISPKYGPMAGGTLLTLTGNYLNSGNSRHISIGGKTCTLKSVSNSILECYTPAQTISTEFAVKLKIDLANRETSIFSYREDPIVYEIHPTKSFISGGSTITGVGKNLNSVSVPRMVINVHEAGRNFTVACQHRSNSEIICCTTPSLQQLNLQLPLKTKAFFMLDGILSKYFDLIYVHNPVFKPFEKPVMISMGNENVLEIKGNDIDPEAVKGEVLKVGNKSCENIHLHSEAVLCTVPNDLLKLNSELNIEWKQAISSTVLGKVIVQPDQNFT
modifications: extracellular domain V5/His tag, membrane-bound
endogenous Met tyrosine phosphorylation in transfectants [5]: attenuation | phospho-MAPK in transfectants [6]: attenuation
